2 molecules from patent publication US20200317768A1 (published 2020) can be followed below.

In assay [1] the target is T1, Cynomolgus monkey latent myostatin (cynomolgus monkey, UniProt Q95J86 25-266; Q95J86 267-375).
T1 construct: Latent form = complex of two propeptides and the mature dimer; also called Cyno latent myostatin
T1 sequence 1: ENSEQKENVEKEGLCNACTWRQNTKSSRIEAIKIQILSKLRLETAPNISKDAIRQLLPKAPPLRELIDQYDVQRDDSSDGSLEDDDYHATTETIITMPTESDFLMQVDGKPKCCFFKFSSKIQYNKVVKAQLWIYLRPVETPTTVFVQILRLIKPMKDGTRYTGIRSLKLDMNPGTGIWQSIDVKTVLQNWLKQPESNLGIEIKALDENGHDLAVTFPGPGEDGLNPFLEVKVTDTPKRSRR
T1 sequence 2: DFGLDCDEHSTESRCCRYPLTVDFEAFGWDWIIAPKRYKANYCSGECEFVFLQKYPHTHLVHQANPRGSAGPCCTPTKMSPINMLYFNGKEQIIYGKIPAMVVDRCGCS
As to the kind of experiment: SPR 37C; KD pH 5.8 / KD pH 7.4. On the procedure: (§1) ProA/G (Pierce) was immobilized onto all flow cells of a CM4 chip using an amine coupling kit (GE Healthcare). All antibodies and analytes were prepared in ACES pH7.4 or pH5.8 buffer containing 20 mM ACES, 150 mM NaCl, 1.2 mM CaCl₂, 0.05% TWEEN®) 20, 0.005% NaN₃. […] Human, cyno, and mouse latent myostatin was injected at 3.125 to 50 nM prepared by two-fold serial dilution, followed by dissociation. The sensor surface was regenerated each cycle with 10 mM Glycine HCl pH1.5. Binding affinity was determined by processing and fitting the data to a 1:1 binding model using BIACORE® T200 Evaluation software, version 2.0 (GE Healthcare).

In assay [2] the target is T1, Cynomolgus monkey latent myostatin. As to the kind of experiment: SPR (BIACORE T200) 37C, pH 5.8, antibody captured by ProA/G. The method, then:
as §1
A general note: In SPR one partner is held on a chip, and binding of the other changes the refractive index at the surface.

The target in assay [3] is T2, Human latent myostatin (human, UniProt O14793 25-266; O14793 267-375).
T2 construct: also called human myostatin latent form
T2 sequence 1: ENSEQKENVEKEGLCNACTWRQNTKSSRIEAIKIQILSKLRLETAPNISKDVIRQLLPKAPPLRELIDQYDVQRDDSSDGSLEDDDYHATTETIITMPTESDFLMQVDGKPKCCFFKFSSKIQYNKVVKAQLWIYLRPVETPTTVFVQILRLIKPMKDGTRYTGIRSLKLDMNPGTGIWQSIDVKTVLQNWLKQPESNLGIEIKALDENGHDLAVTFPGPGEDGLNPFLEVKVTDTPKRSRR
T2 sequence 2: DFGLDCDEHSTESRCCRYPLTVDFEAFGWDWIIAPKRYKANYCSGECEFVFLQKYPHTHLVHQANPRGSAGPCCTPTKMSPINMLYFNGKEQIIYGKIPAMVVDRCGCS
Description: SPR (BIACORE T200) 37C, pH 7.4, antibody captured by ProA/G. On the procedure: as §1

Assay [4] deals with T1, Cynomolgus monkey latent myostatin. Described as above. The method, then:
as §1

Assay [5] has as its target T3, Mouse latent myostatin (mouse, UniProt O08689 26-267; O08689 268-376).
T3 construct: Latent form = complex of two propeptides and the mature dimer
T3 sequence 1: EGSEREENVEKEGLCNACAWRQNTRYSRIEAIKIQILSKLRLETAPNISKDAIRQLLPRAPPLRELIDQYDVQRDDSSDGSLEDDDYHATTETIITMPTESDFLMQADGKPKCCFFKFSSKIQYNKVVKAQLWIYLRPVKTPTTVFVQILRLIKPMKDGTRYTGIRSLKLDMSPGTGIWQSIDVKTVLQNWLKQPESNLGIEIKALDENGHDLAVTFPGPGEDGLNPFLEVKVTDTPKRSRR
T3 sequence 2: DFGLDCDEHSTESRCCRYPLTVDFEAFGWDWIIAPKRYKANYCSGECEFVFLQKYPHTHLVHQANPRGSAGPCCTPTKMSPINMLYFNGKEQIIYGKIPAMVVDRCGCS
The assay is described as above. The method, then: as §1

The target in assay [6] is T2, Human latent myostatin. Description: SPR 37C; KD pH 5.8 / KD pH 7.4. On the procedure: as §1
In assay [7] the target is T2, Human latent myostatin. Description: SPR (BIACORE T200) 37C, pH 5.8, antibody captured by ProA/G. The method, then: as §1

As a reminder, the Kd is a measure of binding affinity in units of concentration.

B1: MS_M103205H1186-SG1/M103202L889-SK1 (antibody, human IgG1, kappa, V domains shown)
VH: QVTLKESGPVLVKPTETLTLTCTVSGIDLSHDDISWVRQAPGKGLEWVGIISYAGKKYYASWAKGRLTISKDTSKNQVVLTMTNMDPVDTATYYCARGVPAYSHGGDLWGQGTLVTVSS
VL: DIVMTQSPATLSLSPGERATLSCTSSQSVYHANWLSWFQQKPGQPPKLLIYWASTLAYGVPSRFSGSGSGTDFTLTISSLQPEDAATYYCAGGYGGGRYAFGQGTKVEIKR
notes: also called MS1032LO18-SG1
For the molecule B1, in assay [1], the “ratio of KD at pH 5.8/pH 7.4” value is 229. The Kd in assay [2] was 80.9 nM; in assay [3], 0.329 nM; in assay [4], 0.354 nM; in assay [5] it was 0.272 nM.

B2: MS_M103245H795-SG1/M103202L1045-SK1 (antibody, human IgG1, kappa, V domains shown)
VH: QVTLKESGPVLVKPTETLTLTCKVSGIDLSHDDISWVRQAPGKGLEWVSIISYAGSTYYASWAKGRLTISKDTSKNQVVLTMTNMDPVDTATYYCARGVPAYSHGGDLWGQGTLVTVSS
VL: DIVMTQSPATLSLSPGERATLSCTTSQSVYHENWLSWFQQKPGQPPKLLIYWASTLAYGVPSRFSGSGSGTDFTLTISSLQPEDAATYYCAGGYGGGRYAFGQGTKVEIKR
notes: also called MS1032LO21-SG1
Turning to B2, the entries for the “ratio of KD at pH 5.8/pH 7.4” value in assay [6] and in assay [1] were 204 and 100, respectively. The Kd in assay [7] came to 52.3 nM; in assay [2], 31 nM; in assay [3], 0.257 nM; in assay [4], 0.309 nM.
